Drawing on patent US5091518, this text covers activity (fold induction) for 2 substances.

The data set concerns the target T1, Retinoic acid receptor alpha (RAR-alpha) (UniProt P10276).
T1 sequence: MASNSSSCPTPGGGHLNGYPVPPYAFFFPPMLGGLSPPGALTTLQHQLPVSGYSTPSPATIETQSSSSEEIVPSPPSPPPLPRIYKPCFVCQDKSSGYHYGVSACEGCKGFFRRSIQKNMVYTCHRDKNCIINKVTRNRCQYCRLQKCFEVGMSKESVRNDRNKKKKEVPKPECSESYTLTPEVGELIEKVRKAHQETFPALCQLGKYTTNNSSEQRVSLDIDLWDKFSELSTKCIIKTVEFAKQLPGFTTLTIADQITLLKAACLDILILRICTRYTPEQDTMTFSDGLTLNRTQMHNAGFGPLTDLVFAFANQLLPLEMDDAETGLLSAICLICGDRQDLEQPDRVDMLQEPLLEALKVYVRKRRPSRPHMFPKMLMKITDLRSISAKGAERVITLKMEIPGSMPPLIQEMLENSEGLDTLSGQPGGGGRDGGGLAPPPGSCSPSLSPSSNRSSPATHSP
The experiment in a line: cell_activity.

In the case of 183 bp SmaI fragment of RARb promoter, the activity (fold induction) (CV-1 cells, 10^-6 M retinoic acid, reverse orientation 9-fold) was 10.

The substance “NR oligo (45 bp located 24 bp 3' of bRE1)” came in with an activity (fold induction) (same as empty DMTV-LUC (2-fold)) of 2.
